According to patent US9120862:
Bridge positions count the residues as written; N and C are the ends. Ends that are not written are not given here.

Experiments:
[1] = target: monoclonal antibody 3C10 (produced by hybridoma cell line ATCC deposit designation PTA-9638); assay: FCS competition: 2 nM Alexa488-PIVKA-II (13-27) tracer + 10 nM mAb 3C10, competitor titrated; apparent diffusion coefficient of the tracer
[2] = target: monoclonal antibody 3C10 (produced by hybridoma cell line ATCC deposit designation PTA-9638); assay: FCS competition: 2 nM Alexa488-PIVKA-II (13-27) premixed with 10 nM mAb 3C10, unlabelled PIVKA-II (13-27) added, overnight; D of the tracer (high D = tracer displaced)

- IC50 (read off the curve) [1]: 50 nM
- Apparent Diffusion Coefficient (D) [2]: 174 um^2/sec
Binder: LERECVEETCSYEEA (disulfide 5-10 (inferred)) [PIVKA-II (13-27) peptide, unlabelled (positive control competitor)]
